Results: the supplement of paper PMC10567573

B1: ZNF193 (parent)
chain: QKRYHCKECGKVFSQSAGLIQHQR
B2: SLC2A12 (parent)
chain: TRIMIGLTLVFFVQITGQPNILFY

Variants of: B1
Assay: protein stability index of a GFP-peptide fusion (GPS, HEK-293T) (PSI 1-6); higher = more stable
Conditions: c terminus: a fixed tail appended
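Note: lentivirally expressed fusions sorted by FACS into six bins by GFP to DsRed ratio, PSI derived from sequencing read proportions per bin multiplied by bin number.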

| Variant | protein stability index |
| --- | --- |
| QKRYHCKECGKVFSQSAGLIQHQW [R24W] | 2.1 |
| QKRYHCKECGKVFSQSAGLIQHQY [R24Y] | 2.5 |

Variants of: B2
Assay: as above
Conditions: c terminus: a fixed tail appended

| Variant | protein stability index |
| --- | --- |
| TRIMIGLTLVFFVQITGMPNILFY [Q18M] | 3.21 |
| TRIMIGLTLVFFYQITGQPNILFY [V13Y] | 3.14 |
| TRIMIGLTLVFFVQITGQPNWLFY [I21W] | 3.64 |
| TRIMIGLTLVFFVQITGQPTILFY [N20T] | 2.22 |
| TRIMIGLTLVFFVQITGQPNILTY [F23T] | 2.38 |
| TRIAIGLTLVFFVQITGQPNILFY [M4A] | 3.65 |
| TRIMKGLTLVFFVQITGQPNILFY [I5K] | 3.18 |
| TRIMIGLTLVFFVQITGQPNTLFY [I21T] | 3.91 |
| TRIMIGLTLVFFVLITGQPNILFY [Q14L] | 3.19 |
| TRIMIGLTLVFFVQIYGQPNILFY [T16Y] | 3.48 |
| TRIMIGLTLVFFVQATGQPNILFY [I15A] | 1.54 |
| TRIHIGLTLVFFVQITGQPNILFY [M4H] | 2.79 |
| TRIMIDLTLVFFVQITGQPNILFY [G6D] | 2.73 |
| TRIMIYLTLVFFVQITGQPNILFY [G6Y] | 2.48 |
| TRIMIGLTLVFFVQITGQPNINFY [L22N] | 3.01 |
| TRIMIGLTLVFFVQITGQPNILFS [Y24S] | 2.89 |
| TRIMIGLTLVQFVQITGQPNILFY [F11Q] | 3.49 |
| TRIMIGLTLVFFVQITGQPNILFA [Y24A] | 3.48 |
| TNIMIGLTLVFFVQITGQPNILFY [R2N] | 3.48 |
| TAIMIGLTLVFFVQITGQPNILFY [R2A] | 3.31 |
| TRIMIGLFLVFFVQITGQPNILFY [T8F] | 2.26 |
| TRITIGLTLVFFVQITGQPNILFY [M4T] | 2.73 |
| TRIMIKLTLVFFVQITGQPNILFY [G6K] | 2.19 |

| Variant | protein stability index |
| --- | --- |
| TRIMIGLTDVFFVQITGQPNILFY [L9D] | 3.04 |
| TRIMIGLDLVFFVQITGQPNILFY [T8D] | 2.01 |
| TRIMIGLTLVFFVQITLQPNILFY [G17L] | 2.86 |
| TRIMIGLTLVFFVQITQQPNILFY [G17Q] | 2.8 |
| TRIMIGWTLVFFVQITGQPNILFY [L7W] | 2.84 |
| TRIMIGLTWVFFVQITGQPNILFY [L9W] | 2.24 |
| TRIMTGLTLVFFVQITGQPNILFY [I5T] | 2.83 |
| TRIMIGLTLVFFVSITGQPNILFY [Q14S] | 3.29 |
| TRIMIGLTLVFFVQITGQPNILFI [Y24I] | 3.33 |
| TRIMIGLCLVFFVQITGQPNILFY [T8C] | 3.82 |
| TRSMIGLTLVFFVQITGQPNILFY [I3S] | 3.14 |
| TRIMIGLTLVPFVQITGQPNILFY [F11P] | 2.09 |
| TRIMIGLTLVFFVQITGQPNIIFY [L22I] | 1.48 |
| TRIMIGLTLVLFVQITGQPNILFY [F11L] | 2.5 |
| TRIMIGLTLVFFVQITGQPPILFY [N20P] | 3.22 |
| TSIMIGLTLVFFVQITGQPNILFY [R2S] | 2.95 |
| TGIMIGLTLVFFVQITGQPNILFY [R2G] | 3.53 |
| TRIMIGLTLVFFVWITGQPNILFY [Q14W] | 4.35 |
| TRTMIGLTLVFFVQITGQPNILFY [I3T] | 1.84 |
| TRIMIGLTLVFFVQITGQPNILHY [F23H] | 2.96 |
| TRIMIGLTMVFFVQITGQPNILFY [L9M] | 2.58 |
| TRIMIGLTLVFFVQITGQSNILFY [P19S] | 2.39 |
| TRIMIGLTLVFFVQITGQPNIMFY [L22M] | 2.97 |

| Variant | protein stability index |
| --- | --- |
| TQIMIGLTLVFFVQITGQPNILFY [R2Q] | 4 |
| TRIMIGLTLVFFVQITGQTNILFY [P19T] | 3.21 |
| TRIMIGLTLVFFVQITGWPNILFY [Q18W] | 3.71 |
| TRIMIGLTLVFYVQITGQPNILFY [F12Y] | 3.14 |
| TRIMIGLTLVFFVQITGQPNVLFY [I21V] | 2.5 |
| TRIMIGKTLVFFVQITGQPNILFY [L7K] | 1.8 |
| TRIMIGLTLVKFVQITGQPNILFY [F11K] | 2.68 |
| TRIMIGLTLVFFVQITGQPVILFY [N20V] | 2.81 |
| TRIMIGLTLVFFVQITDQPNILFY [G17D] | 3.49 |
| TRIMIGLTLVFFVQITGQPIILFY [N20I] | 2.48 |
| TRIMIGLTLVFFVQITNQPNILFY [G17N] | 3.03 |
| TRIMIGLTIVFFVQITGQPNILFY [L9I] | 3.09 |
| TRIMIGLTLVFFVQLTGQPNILFY [I15L] | 2.74 |
| TRIMIGLTLVFWVQITGQPNILFY [F12W] | 2.48 |
| TRIMIGDTLVFFVQITGQPNILFY [L7D] | 2.9 |
| TRIMIGLTLVFFVQITGQPNIHFY [L22H] | 2.65 |
| YRIMIGLTLVFFVQITGQPNILFY [T1Y] | 5.08 |
| TRIMIGLTLVFFVQITGEPNILFY [Q18E] | 4.17 |
| TRIMIGLTLVFFVQCTGQPNILFY [I15C] | 3.47 |
| TRIMIVLTLVFFVQITGQPNILFY [G6V] | 2.43 |
| TRIMIGLTLVFFVQITGQPNILFC [Y24C] | 3.19 |
| TRIMDGLTLVFFVQITGQPNILFY [I5D] | 3.91 |
| TRIMIGLTLVFFVQITGQPNPLFY [I21P] | 3.17 |

| Variant | protein stability index |
| --- | --- |
| TRIMIGCTLVFFVQITGQPNILFY [L7C] | 2.22 |
| TRIMIGLTLVFFVQITGQPNIKFY [L22K] | 1.94 |
| TRIMIGLTLVFFVQITGQPNILFP [Y24P] | 3.53 |
| TRIMIGLTLVFFVQITGQPNILFR [Y24R] | 3.44 |
| TRIMHGLTLVFFVQITGQPNILFY [I5H] | 3.25 |
| TRIMGGLTLVFFVQITGQPNILFY [I5G] | 3.23 |
| TRISIGLTLVFFVQITGQPNILFY [M4S] | 3.75 |
| TRIRIGLTLVFFVQITGQPNILFY [M4R] | 3.83 |
| TRIMYGLTLVFFVQITGQPNILFY [I5Y] | 2.65 |
| TRIMIFLTLVFFVQITGQPNILFY [G6F] | 4.16 |
| TRIPIGLTLVFFVQITGQPNILFY [M4P] | 2.72 |
| TRIMIGVTLVFFVQITGQPNILFY [L7V] | 2.5 |
| TRIMIGLTLVFFGQITGQPNILFY [V13G] | 3.16 |
| TRIMIGLTLVFFVQITGQPNICFY [L22C] | 3.96 |
| TRIMIRLTLVFFVQITGQPNILFY [G6R] | 2.75 |
| QRIMIGLTLVFFVQITGQPNILFY [T1Q] | 2.42 |
| TRIMIGLTLVFFPQITGQPNILFY [V13P] | 3.01 |
| TRIMIGLTLVFFVQITPQPNILFY [G17P] | 3.68 |
| TRICIGLTLVFFVQITGQPNILFY [M4C] | 4.43 |
| TRIMIGLTLVEFVQITGQPNILFY [F11E] | 1.63 |
| TRIMIGLVLVFFVQITGQPNILFY [T8V] | 3.33 |
| TRIMIGPTLVFFVQITGQPNILFY [L7P] | 2.96 |
| TRMMIGLTLVFFVQITGQPNILFY [I3M] | 3.1 |
